# US20210121527A1, “METHODS OF TREATING MINIMAL RESIDUAL CANCER” (ICAHN SCHOOL OF MEDICINE AT MOUNT SINAI, priority 2018, published 2021)
# B1: BMP7-F9: variant of human mature BMP7, homodimer of SEQ ID NO:8 (protein, listed as Homo sapiens)
# chain: STGSKQRSQNRSKTPKNQEALRMANVAENSSSDQRQACKKHELYVSFRDLGWQDWIIAPEGYAAGYCEGECAFPLNSYMNATNHALVQTLVHVINPETVPKPCCAPTQLGAISVLYFDDSSNVILKKWRNMVVRACGCH
# modifications: homodimer
# Experiments:
# HEp3 HNSCC cells = assay: ERK/p38 activity ratio, dormancy mRNAs and NR2F1 in HEp3 cells; type: cell-based
# Experimental: The effect on the ERK/p38 activity ratio is observed after 2-6 and 24 hours (second through fourth group of columns). In the first 30 minutes, ERK activity is stimulated by BMP7 (first column set). […] Arrows indicate NR2F1 flourescence. Differences in FIG. 13A and FIG. 13B, p<0.05 as calculated using Student's t test.
# BMP7-F9 reduces the ERK/p38 activity ratio and induces various mRNAs in the dormancy signature (FIGS. 13A-13C). […] The effect on the ERK/p38 activity ratio is observed after 2-6 and 24 hours (second through fourth group of columns). In the first 30 minutes ERK activity is stimulated by BMP7 (first column set). […] Differences in FIG. 13A and FIG. 13B, p<0.05 as calculated using Student's t test.
# T-HEp3 cells [1] = assay: Cell titer blue proliferation assay; type: cell-based; details: 48 hours
# T-HEp3 cells [2] = assay: T-HEp3 tumors on chicken embryo chorioallantoic membranes (CAM); type: in vivo; details: 24 hours pre-treatment, then 50 ng/ml daily
# Experimental: FIG. 14B is a schematic illustration of the in vivo experimental procedure used in FIGS. 14C-14D. T-HEp3 cells were pre-treated for 24 hours with BMP7-F9 in vitro and then inoculated on chicken embryo chorioallantoic membranes (“CAM”s) (FIG. 14C), where they were treated daily in vivo with vehicle or BMP7-F9 (50 ng/ml) prior to collection of the tumors and quantification of number of HEp3 HNSCC cells (FIG. 14D) and levels of P-H3 (FIG. 14E). Arrows in FIG. 14E indicate overlapping P-H3 and DAPI fluorescence.
# FIG. 14B is a schematic illustration of the in vivo experimental procedure used in FIGS. 14C-14D. T-HEp3 cells were pre-treated for 24 hours with BMP7-F9 in vitro and then inoculated on chicken embryo chorioallantoic membranes (CAMs) (FIG. 14C), where they were treated daily in vivo with vehicle or BMP7-F9 (50 ng/ml) prior to collection of the tumors and quantification of number of HEp3 HNSCC cells/tumor (FIG. 14D) and levels of P-H3 (FIG. 14E).
# HEp3-GFP HNSCC tumors = assay: HEp3-GFP HNSCC tumor surgery model in NSG mice, local recurrence and lung DCCs; type: in vivo, mouse
# Excerpt: FIGS. 15A-15C show the evaluation of BMP7-F9 treatment in a mouse model of disease. FIG. 15A is a schematic illustration of an in vivo experimental procedure used to evaluate the effect of BMP7-F9 on metastasis initiation. […] Tumors were then removed via surgery. 1-2 days after surgery, the adjuvant treatment with BMP7-F9 was continued for another 3, 4, or 6 weeks. Animals were then euthanized and the DCC burden in lung was scored using fluorescence microscopy. […] At those time points, the percentage of local recurrence and DCC incidence was scored. In FIG. 15C, mice were treated as in FIG. 15A, except that the adjuvant treatment was for 4 weeks. The number of GFP positive cells in dissociated lungs was scored following treatment. […] Note that the median of DCC burden drops one log and that BMP-7 apparently cures from DCCs 3 of 7 animals.
# Tumors were then removed via surgery. 1-2 days after surgery, the adjuvant treatment with BMP7-F9 was continued for another 4 weeks. Animals were then euthanized and the DCC burden in lung was scored using fluorescence microscopy. […] NSG mice were treated following the protocol in FIG. 15A for 4 weeks. At those time points, the percentage of local recurrence and DCC incidence was scored. The number of GFP positive cells in dissociated lungs was scored following treatment. […] Note that the median of DCC burden drops one log and that BMP-7 apparently cures from DCCs 3 of 7 animals.
# [3] = adjuvant treatment only, 3 weeks
# [4] = adjuvant treatment only, 6 weeks
# [5] = neo-adjuvant and adjuvant treatment, 4 weeks
molecule,measurement,setting,value
B1,"DEC2, p53 and p27 mRNAs","HEp3 HNSCC cells; 10 ng/ml, 24 hours","induces DEC2, p53, and p27 mRNAs"
same,nuclear NR2F1 (immunofluorescence),"HEp3 HNSCC cells; 10 ng/ml, 24 hours",induces nuclear accumulation of NR2F1
same,ERK/p38 activity ratio (Western blot),"HEp3 HNSCC cells; 2, 5 and 10 ng/ml, 2-6 and 24 hours",reduces the ERK/p38 activity ratio over control
same,proliferation in vitro (cell titer blue),T-HEp3 cells [1],inhibits their proliferation in vitro
same,growth of T-HEp3 cells in vivo (CAM),T-HEp3 cells [2],induces growth arrest of T-HEp3 cells
same,+DCCs in lungs (animals),HEp3-GFP HNSCC tumors; [3],5
same,+local recurrence (animals),HEp3-GFP HNSCC tumors; [3],1
same,DCC incidence (%),HEp3-GFP HNSCC tumors; [3],50.0%
same,Local recurrence incidence (%),HEp3-GFP HNSCC tumors; [3],9.1%
same,Median number of GFP^+/Vimentin^+ tumor cells/lung,HEp3-GFP HNSCC tumors; [3],0.62E+04
same,+DCCs in lungs (animals),HEp3-GFP HNSCC tumors; [4],3
same,+local recurrence (animals),HEp3-GFP HNSCC tumors; [4],0
same,DCC incidence (%),HEp3-GFP HNSCC tumors; [4],42.9%
same,Local recurrence incidence (%),HEp3-GFP HNSCC tumors; [4],0.0%
same,Median number of GFP^+/Vimentin^+ tumor cells/lung,HEp3-GFP HNSCC tumors; [4],0
same,+DCCs in lungs (animals),HEp3-GFP HNSCC tumors; [5],4
same,+local recurrence (animals),HEp3-GFP HNSCC tumors; [5],3
same,DCC incidence in lungs %,HEp3-GFP HNSCC tumors; [5],57.1%
same,Median number of GFP^+/Vimentin^+ tumor cells/lung,HEp3-GFP HNSCC tumors; [5],0.02E+04
same,animals apparently cured from DCCs,HEp3-GFP HNSCC tumors; [5],3 of 7
same,local recurrence %,HEp3-GFP HNSCC tumors; [5],42.9%
same,median of DCC burden in lungs,HEp3-GFP HNSCC tumors; [5],drops one log
